For data set [1], the target named is T1, SmTGA5 (Salvia miltiorrhiza, UniProt UPI0025ACD97B 1-458).
T1 sequence: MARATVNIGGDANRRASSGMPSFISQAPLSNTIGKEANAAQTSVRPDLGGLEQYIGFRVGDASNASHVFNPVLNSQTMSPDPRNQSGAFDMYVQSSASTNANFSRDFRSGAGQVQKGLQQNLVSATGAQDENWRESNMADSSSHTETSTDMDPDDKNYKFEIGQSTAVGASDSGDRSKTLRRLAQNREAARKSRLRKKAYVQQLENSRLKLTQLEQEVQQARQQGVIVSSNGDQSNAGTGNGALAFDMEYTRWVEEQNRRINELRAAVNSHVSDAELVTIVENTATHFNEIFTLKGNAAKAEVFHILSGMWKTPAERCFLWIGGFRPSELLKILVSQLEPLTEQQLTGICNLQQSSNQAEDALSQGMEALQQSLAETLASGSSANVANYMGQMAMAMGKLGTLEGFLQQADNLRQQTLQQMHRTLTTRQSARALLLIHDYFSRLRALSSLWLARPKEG
The data set is described as follows: EMSA; unlabeled probe at 1:10 and 1:100 reduces the shift; Beyotime GS009 EMSA kit, 20-25 C, 20 min, acrylamide gel; buffer, salt and pH not stated. The conditions noted are these: protein: recombinant; tags: His (pET32a, N-terminal fusion); chain copies: 2; blunt. In general terms: A gel shift assay detects complexes by their altered migration in electrophoresis.

The target of data set [2] is T1, SmTGA5. In words: EMSA; Beyotime GS009 EMSA kit, 20-25 C, 20 min, acrylamide gel; buffer, salt and pH not stated. The settings on record: protein: recombinant; tags: His (pET32a, N-terminal fusion); chain copies: 2; blunt.

B1: Probe-pTAT1 (3x as-1) (dsDNA)
DNA 1: TTTAAAGTGACGTGTATCATTTAAAGTGACGTGTATCATTTAAAGTGACGTGTATCA
DNA 2: TGATACACGTCACTTTAAATGATACACGTCACTTTAAATGATACACGTCACTTTAAA
As for B1, the binding result with SmTGA5 [1] was “binds”.

B2: Mut-Probe-pTAT1 (dsDNA)
DNA 1: TTTAAAGTTAAATGTATCATTTAAAGTTAAATGTATCATTTAAAGTTAAATGTATCA
DNA 2: TGATACATTTAACTTTAAATGATACATTTAACTTTAAATGATACATTTAACTTTAAA
As to B2, in the data set with SmTGA5 [2], the binding result is given as “no binding”.

These data come from article PMC10208894, “The SmNPR4-SmTGA5 module regulates SA-mediated phenolic acid biosynthesis in Salvia miltiorrhiza hairy roots”.
